Test results: patent publication US20140087995A1 (published 2014)
Numbered stars: 1 amine (or outer) side, 2 acyl side, 3 side chain; on linkers, the order of the positions; unused ones are H or OH. Bridge positions count the residues as written; N and C are the ends. Side chains are listed from the residue outwards. Ends that are not written are not given here. * marks the point of attachment. C20 diacid = O=C(O)CCCCCCCCCCCCCCCCCCC(=O)*; γGlu = O=C(O)[C@H](CCC(=O)[*:2])N[*:1]

How the values were obtained:
[1] = molecular target: T1, human calcitonin receptor (human, UniProt P30988 25-474); experiment: SPA radioligand competition (125I-calcitonin), membranes of BHK cells with human calcitonin receptor
T1 construct: whole, on cells; Assay used cell membranes of the transfected BHK cells; also called hCTR; hCT
T1 sequence (looked up): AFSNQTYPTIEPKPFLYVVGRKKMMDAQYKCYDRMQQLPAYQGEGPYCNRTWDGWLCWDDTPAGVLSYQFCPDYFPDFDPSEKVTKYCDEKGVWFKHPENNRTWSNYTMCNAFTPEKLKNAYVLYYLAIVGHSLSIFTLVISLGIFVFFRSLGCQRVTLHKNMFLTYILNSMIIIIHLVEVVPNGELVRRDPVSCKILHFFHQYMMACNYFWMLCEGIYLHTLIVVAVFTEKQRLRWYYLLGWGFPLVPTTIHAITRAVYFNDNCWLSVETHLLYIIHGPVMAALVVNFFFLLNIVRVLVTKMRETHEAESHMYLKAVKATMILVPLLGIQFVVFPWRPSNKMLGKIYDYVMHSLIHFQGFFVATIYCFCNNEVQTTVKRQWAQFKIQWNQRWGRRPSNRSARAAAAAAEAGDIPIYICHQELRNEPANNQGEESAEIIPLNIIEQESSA
In short: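 BHK hCTR membranes 35 ng/μL + SPA beads 0.05 mg/well; buffer 50 mM Hepes pH 7.4, 1 mM CaCl2, 5 mM MgCl₂, 0.1% OA, 0.02% Tween20. 120 min, 25° C., shaking. Scintillation count; IC50 by one-site binding competition.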

[2] = molecular target: T1, human calcitonin receptor; experiment: ratio IC50 hCTR / IC50 hAmylin-R of the two SPA competition assays; reference: human amylin receptor
Procedure: The resulting pellet was resuspended, homogenized and centrifuged (20.000 rpm, 15 min) in a buffer containing 20 mM Na-HEPES and 0.1 mM EDTA (pH 7.4, buffer 2). The resulting pellet was resuspended in buffer 2 and protein concentration was measured (BCA protein Assay, Pierce). The homogenate was kept cold during the whole procedure. The membranes were kept at −80° C. until use. The assay was performed in a 384 well Optiplate (PerkinElmer) in a total volume of 40 ul. Membranes were mixed with SPA beads. Final concentration of membranes 35 ng/μL final and SPA beads was 0.05 mg/well. Test-compounds were dissolved in DMSO and further diluted in assay buffer (50 mM Hepes, pH 7.4, 1 mM CaCl2, 5 mM MgCl₂, 0.1% OA and 0.02% Tween20). […] The final mixture was incubated with shaking at 400 rpm for 120 min at 25° C. prior to centrifugation (1500 rpm, 10 min). Samples were analyzed on TopCounter™ (Packard). The IC₅₀ was calculated using (one site binding competition analysis) GraphPad Prism5 as a measure of receptor affinity.
Membranes were prepared in the following way; the cells were rinsed with PBS and incubated with Versene for approximately 5 min before harvesting. The cells were flushed with PBS and the cell-suspension was centrifuged for 5 min at 1000 rpm. Cells were homogenized (Ultrathurrax) in a buffer containing 20 mM Na-HEPES and 10 mM EDTA (pH 7.4) and centrifuged at 20.000 rpm for 15 min. The resulting pellet was resuspended, homogenized and centrifuged (20.000 rpm, 15 min) in a buffer containing 20 mM Na-HEPES and 0.1 mM EDTA (pH 7.4, buffer 2). The resulting pellet was resuspended in buffer 2 and protein concentration was measured (BCA protein Assay, Pierce). The homogenate was kept cold during the whole procedure. The membranes were kept at −80° C. until use. Assay was performed in a 384 well Optiplate (PerkinElmer) in a total volume of 40 ul. Membranes were mixed with SPA beads.

[3] = molecular target: T2, rat amylin receptor (rat calcitonin receptor + rat RAMP 3) (rat, UniProt P32214 25-516; Q9JJ73 23-147); experiment: SPA competition vs 125I-rat amylin, membranes (Assay VI)
T2 construct: whole, on cells; Membranes prepared from transiently transfected BHK tk'ts 13 cells; also called rAmylin-R; rat amylin 3(a) receptor
T2 sequence (looked up) 1: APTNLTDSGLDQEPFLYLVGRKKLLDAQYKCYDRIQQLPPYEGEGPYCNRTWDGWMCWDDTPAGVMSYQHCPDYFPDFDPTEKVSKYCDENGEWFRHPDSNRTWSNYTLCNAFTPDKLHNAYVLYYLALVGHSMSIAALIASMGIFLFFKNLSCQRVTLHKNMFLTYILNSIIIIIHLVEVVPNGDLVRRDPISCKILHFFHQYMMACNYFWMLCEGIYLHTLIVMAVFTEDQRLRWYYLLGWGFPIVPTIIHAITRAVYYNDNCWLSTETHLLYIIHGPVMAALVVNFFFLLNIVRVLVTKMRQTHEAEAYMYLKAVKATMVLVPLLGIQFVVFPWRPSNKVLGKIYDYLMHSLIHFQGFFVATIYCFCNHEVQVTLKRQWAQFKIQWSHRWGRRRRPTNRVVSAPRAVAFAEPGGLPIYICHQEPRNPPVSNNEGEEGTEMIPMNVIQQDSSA
T2 sequence (looked up) 2: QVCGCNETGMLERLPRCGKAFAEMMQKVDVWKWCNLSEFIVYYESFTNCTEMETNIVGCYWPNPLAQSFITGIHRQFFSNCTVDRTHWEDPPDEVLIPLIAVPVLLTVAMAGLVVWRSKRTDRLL

rat calcitonin receptor [4] = molecular target: T3, rat calcitonin receptor (rat, UniProt P32214 25-516); experiment: SPA competition vs 125I-calcitonin, membranes (Assay VIII)
T3 construct: whole, on cells; Membranes prepared from transiently transfected BHK tk'ts 13 cells; also called rCTR; rat calcitonin (a) receptor
T3 sequence (looked up): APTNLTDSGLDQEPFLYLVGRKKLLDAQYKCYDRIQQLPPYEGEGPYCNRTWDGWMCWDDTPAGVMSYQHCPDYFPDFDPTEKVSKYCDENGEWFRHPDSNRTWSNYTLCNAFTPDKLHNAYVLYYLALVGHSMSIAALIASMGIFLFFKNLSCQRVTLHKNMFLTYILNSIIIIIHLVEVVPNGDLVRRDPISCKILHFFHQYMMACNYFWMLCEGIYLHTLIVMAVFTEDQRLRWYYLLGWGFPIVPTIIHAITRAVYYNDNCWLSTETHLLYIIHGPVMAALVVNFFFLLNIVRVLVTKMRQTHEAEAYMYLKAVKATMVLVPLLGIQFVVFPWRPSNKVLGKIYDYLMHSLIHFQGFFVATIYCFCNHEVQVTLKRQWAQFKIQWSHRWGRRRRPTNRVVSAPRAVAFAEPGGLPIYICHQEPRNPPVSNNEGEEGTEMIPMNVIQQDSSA

rat calcitonin receptor [5] = molecular target: T3, rat calcitonin receptor; experiment: ratio of IC50 on rat calcitonin receptor to IC50 on rat amylin receptor
[6] = molecular target: T4, human calcitonin receptor (human, UniProt P30988 25-474); experiment: ratio of IC50 on human calcitonin receptor to IC50 on human amylin receptor
T4 construct: whole, on cells; Membranes from stably transfected BHK cells; also called hCTR; hCT
T4 sequence (looked up): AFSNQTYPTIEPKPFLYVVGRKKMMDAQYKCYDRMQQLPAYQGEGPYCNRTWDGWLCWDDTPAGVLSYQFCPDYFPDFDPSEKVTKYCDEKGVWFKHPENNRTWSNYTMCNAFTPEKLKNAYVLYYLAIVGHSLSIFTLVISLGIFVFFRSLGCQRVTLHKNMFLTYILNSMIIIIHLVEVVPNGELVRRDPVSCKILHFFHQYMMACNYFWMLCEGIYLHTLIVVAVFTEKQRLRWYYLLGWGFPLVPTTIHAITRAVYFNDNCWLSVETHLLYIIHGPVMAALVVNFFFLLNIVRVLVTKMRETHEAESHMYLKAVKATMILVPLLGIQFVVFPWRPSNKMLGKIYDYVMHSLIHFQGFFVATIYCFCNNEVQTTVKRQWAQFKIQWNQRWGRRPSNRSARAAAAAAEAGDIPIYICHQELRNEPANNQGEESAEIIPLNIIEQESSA
In short: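 Scintillation proximity competition binding on cell membranes at 35 ng/μL with SPA beads, in 50 mM Hepes pH 7.4, 1 mM CaCl2, 5 mM MgCl₂, 0.1% OA, 0.02% Tween20. Incubated 120 min at 25° C with shaking. IC₅₀ from one-site competition fit.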

Binder	IC50 [1] [nM]	Ratio hCT/hAmylin binding [2]	IC50 [3] [nM]	IC50 (rat calcitonin receptor [4]) [nM]	Ratio rCT/rAmylin binding (rat calcitonin receptor [5])	Ratio hCT/hAmylin binding [6]
KCNTATCATQRLAEFLRHSSPNFGAIPSSTNVGSNTY (C20 diacid-gGlu-2xOEG on the alpha amino group of the N-terminal residue (Lys1); disulfide Cys2-Cys7; C-terminal amide, Synthetic analogue; also called compound 19)	20.4	36.7				
KCNTATCATQRLANFLRHSSPNFGAIPSSTNVGSETY (C20 diacid-gGlu on the alpha amino group of the N-terminal residue (Lys1); disulfide Cys2-Cys7; C-terminal amide, Synthetic analogue; also called compound 23) [N^α1-[(4S)-4-carboxy-4-(19-carboxynonadecanoylamino)butanoyl]-[Arg17,Pro21,Pro27,Glu35]-h-amylin]	21.8	25				
KCNTATCATQRLANFLRHSSPNFGAIPSSTNVGRNTY (C20 diacid-gGlu on the alpha amino group of the N-terminal residue (Lys1); disulfide Cys2-Cys7; C-terminal amide, Synthetic analogue; also called compound 39) [N^α1-[(4S)-4-carboxy-4-(19-carboxynonadecanoylamino)butanoyl]-[Arg17,Pro21,Pro27,Arg34]-h-amylin]	19.3	29				
{C20 diacid-γGlu}-KCNTATCATQRLANFLRHSSPNFGAIPSSTPVGSETY-NH2 (disulfide 2-7; SMILES CC[C@H](C)[C@H](NC(=O)[C@H](C)NC(=O)CNC(=O)[C@H](Cc1ccccc1)NC(=O)[C@H](CC(N)=O)NC(=O)[C@@H]1CCCN1C(=O)[C@H](CO)NC(=O)[C@H](CO)NC(=O)[C@H](Cc1c[nH]cn1)NC(=O)[C@H](CCCNC(=N)N)NC(=O)[C@H](CC(C)C)NC(=O)[C@H](Cc1ccccc1)NC(=O)[C@H](CC(N)=O)NC(=O)[C@H](C)NC(=O)[C@H](CC(C)C)NC(=O)[C@H](CCCNC(=N)N)NC(=O)[C@H](CCC(N)=O)NC(=O)[C@@H](NC(=O)[C@H](C)NC(=O)[C@@H]1CSSC[C@H](NC(=O)[C@H](CCCCN)NC(=O)CC[C@H](NC(=O)CCCCCCCCCCCCCCCCCCC(=O)O)C(=O)O)C(=O)N[C@@H](CC(N)=O)C(=O)N[C@@H]([C@@H](C)O)C(=O)N[C@@H](C)C(=O)N[C@@H]([C@@H](C)O)C(=O)N1)[C@@H](C)O)C(=O)N1CCC[C@H]1C(=O)N[C@@H](CO)C(=O)N[C@@H](CO)C(=O)N[C@H](C(=O)N1CCC[C@H]1C(=O)N[C@H](C(=O)NCC(=O)N[C@@H](CO)C(=O)N[C@@H](CCC(=O)O)C(=O)N[C@H](C(=O)N[C@@H](Cc1ccc(O)cc1)C(N)=O)[C@@H](C)O)C(C)C)[C@@H](C)O, Synthetic analogue; also called compound 28)	12.5	20.5				
KCNTATCATQRLANFLRHSSPNFGAIPSSTNVGHNTY (C20 diacid-gGlu on the alpha amino group of the N-terminal residue (Lys1); disulfide Cys2-Cys7; C-terminal amide, Synthetic analogue; also called compound 40) [N^α1-[(4S)-4-carboxy-4-(19-carboxynonadecanoylamino)butanoyl]-[Arg17,Pro21,Pro27,His34]-h-amylin]	17.1	31.1				
{C20 diacid-γGlu}-KCNTATCATQRLANFLRHSSPNFGAIPSSTNVGPETY-NH2 (disulfide 2-7; SMILES CC[C@H](C)[C@H](NC(=O)[C@H](C)NC(=O)CNC(=O)[C@H](Cc1ccccc1)NC(=O)[C@H](CC(N)=O)NC(=O)[C@@H]1CCCN1C(=O)[C@H](CO)NC(=O)[C@H](CO)NC(=O)[C@H](Cc1c[nH]cn1)NC(=O)[C@H](CCCNC(=N)N)NC(=O)[C@H](CC(C)C)NC(=O)[C@H](Cc1ccccc1)NC(=O)[C@H](CC(N)=O)NC(=O)[C@H](C)NC(=O)[C@H](CC(C)C)NC(=O)[C@H](CCCNC(=N)N)NC(=O)[C@H](CCC(N)=O)NC(=O)[C@@H](NC(=O)[C@H](C)NC(=O)[C@@H]1CSSC[C@H](NC(=O)[C@H](CCCCN)NC(=O)CC[C@H](NC(=O)CCCCCCCCCCCCCCCCCCC(=O)O)C(=O)O)C(=O)N[C@@H](CC(N)=O)C(=O)N[C@@H]([C@@H](C)O)C(=O)N[C@@H](C)C(=O)N[C@@H]([C@@H](C)O)C(=O)N1)[C@@H](C)O)C(=O)N1CCC[C@H]1C(=O)N[C@@H](CO)C(=O)N[C@@H](CO)C(=O)N[C@H](C(=O)N[C@@H](CC(N)=O)C(=O)N[C@H](C(=O)NCC(=O)N1CCC[C@H]1C(=O)N[C@@H](CCC(=O)O)C(=O)N[C@H](C(=O)N[C@@H](Cc1ccc(O)cc1)C(N)=O)[C@@H](C)O)C(C)C)[C@@H](C)O, Synthetic analogue; also called compound 29)	8.01	13.9				
K([γGlu-C20 diacid])CNTATCATQRLAEFLRHSSPNFGAIPSSTNVGPETY-NH2 (disulfide 2-7; N-terminus assumed; SMILES CC[C@H](C)[C@H](NC(=O)[C@H](C)NC(=O)CNC(=O)[C@H](Cc1ccccc1)NC(=O)[C@H](CC(N)=O)NC(=O)[C@@H]1CCCN1C(=O)[C@H](CO)NC(=O)[C@H](CO)NC(=O)[C@H](Cc1c[nH]cn1)NC(=O)[C@H](CCCNC(=N)N)NC(=O)[C@H](CC(C)C)NC(=O)[C@H](Cc1ccccc1)NC(=O)[C@H](CCC(=O)O)NC(=O)[C@H](C)NC(=O)[C@H](CC(C)C)NC(=O)[C@H](CCCNC(=N)N)NC(=O)[C@H](CCC(N)=O)NC(=O)[C@@H](NC(=O)[C@H](C)NC(=O)[C@@H]1CSSC[C@H](NC(=O)[C@@H](N)CCCCNC(=O)CC[C@H](NC(=O)CCCCCCCCCCCCCCCCCCC(=O)O)C(=O)O)C(=O)N[C@@H](CC(N)=O)C(=O)N[C@@H]([C@@H](C)O)C(=O)N[C@@H](C)C(=O)N[C@@H]([C@@H](C)O)C(=O)N1)[C@@H](C)O)C(=O)N1CCC[C@H]1C(=O)N[C@@H](CO)C(=O)N[C@@H](CO)C(=O)N[C@H](C(=O)N[C@@H](CC(N)=O)C(=O)N[C@H](C(=O)NCC(=O)N1CCC[C@H]1C(=O)N[C@@H](CCC(=O)O)C(=O)N[C@H](C(=O)N[C@@H](Cc1ccc(O)cc1)C(N)=O)[C@@H](C)O)C(C)C)[C@@H](C)O)			0.164	10.4	63.2	13.3
